US6773918B2, “Detection of phenols using engineered bacteria” (The Regents of the University of California, priority 1999, dated 2004)

Columns and labels:
[1] = system: Pdmp-lacZ reporter fusion; experiment: Liquid β-galactosidase assay, test strain AW101 (Pdmp-lacZ fusion) carrying pAW50 dmpR derivatives, exposed to phenols; type: cell-based, E. coli
Source text: Reference will now be made in detail to the present preferred embodiments of the present invention, examples of which are shown in the accompanying drawings. Turning now to FIG. 1, the dmpR wt-N gene (See, e.g., Shingler and Moore, supra) carried on plasmid pAW50 served as the template for amplification of the dpmR sensor domain by mutagenic polymerase chain reaction (PCR). The products resulting from the mutagenic PCR were digested using Ndel and SacII and ligated back into a pAW50 plasmid fragment, from which the wild type Ndel-SacII region had been removed. […] Ligation products were electroporated into AW101 (trp::Pdmp-lacZ fusion). Transformants were initially selected for tetracycline resistance and then replicated onto plates containing X-gal and one of the test phenols. Colonies that developed more blue color than colonies containing wild type DmpR were selected for further analysis with liquid β-galactosidase assays. β-galactosidase activity is proportional to transcription of the Pdmp-lacZ reporter fusion and is, therefore, a measure of particular variant DmpR's ability to detect phenol or specific substituted phenols. This mutagenic procedure led to the identification of more than twenty DmpR derivatives with altered response to phenols. Five of these derivatives are representative of proteins which show significant promise as effective detectors of phenols listed as primary pollutants by the U.S. Environment Protection Agency.
AW101 was used as a test strain to identify and characterize changes in DmpR's sensing capacity subsequent to sensor domain mutagenesis. pAW50 derivatives were electroporated into AW101 and transformants were selected on Luria-Bertani (Difco, Detroit, Mich.) plates containing 10.5 μg/ml tetracycline. Transformants were then replica-plated onto M9 minimal medium (10) plates containing 0.2% glucose, 30 μg/ml tryptophan, 1 μg/ml thiamine, 10.5 μg/ml tetracycline, 0.25% 5-bromo-4-chloro-3-indoyl-β-D-galactoside (X-Gal), and either no inducer (NI) or 0.05 mM of a phenol derivative. Cells that formed blue colonies on plates containing a phenol derivative were subject to liquid β-galactosidase assays.
D. β-Galactosidase Assays. Overnight cultures of AW101 carrying pAW50 derivatives were diluted 1000-fold into Luria-Bertani broth containing 10.5 μg/ml tetracycline. When cells reached an OD595 nm between 0.60 and 0.90 as measured on a Lambda Bio uv/vis spectrophotometer (Perkin Elmer Corp. Analytical Instruments, Norwalk, Conn.), 500 μL samples were pelleted and immediately resuspended in 500 μL spent Luria-Bertani broth containing the appropriate phenol compound. […] Samples were pelleted and frozen at −70° C. for assay the following day.
Liquid β-galactosidase assays were performed using a modification of Miller's assay (Miller, J. H., 1972. “Experiments in Molecular Genetics,” Cold Spring Harbor Laboratory, Cold Spring Harbor, N.Y.). Cell sample pellets were thawed and resuspended in Z buffer. The optical density at 595 nm of each cell suspension was read in a microtiter plate using an automated microplate reader (BIO-TEK Instruments, Inc., Winooski, Vt.). Following the addition of 15 μL 0.1% sodium dodecyl sulfate and 25 μL HCCl3, the remaining cell suspension was vortexed for 30 s to lyse cells. The reaction was begun with the addition of 50 μL o-nitrophenyl-β-D-galactopyranoside (2.5 mg/ml) to the lysed cells. Reactions were incubated at 26° C. until stopped with the addition of 50 μL 1M Na2CO3. Color development of the reactions was read at OD415 on the microplate reader. Arbitrary units for graphing purposes were calculated as (1000×OD415)/(time)(OD595) where time is the reaction time in minutes. Equivalent cell volumes were read for both optical densities.

[2] = system: Pdmp-lacZ reporter fusion; experiment: β-galactosidase detection of phenols in contaminated soil by the bacterial test strain; type: cell-based, E. coli
Source text: FIG. 5a compares the detection of 2,4-dichlorophenol by DmpR-B9 (SEQ ID No. 1 hereof) with that for unsubstituted phenol shown in FIG. 5b in contaminated soil, unsubstituted phenol being a natural effector of wild type DmpR. Detection of chemicals in contaminated soil is often difficult because soil may bind the phenols, making them less available to the test bacteria. […] The response of DmpR-B9 to 4 parts per million (ppm) 2,4-dichlorophenol in soil is six-fold higher than that of wild type DmpR. DmpR-B9′s response to 2.5 ppm phenol is four-fold better than that of wild type.

B1: DmpR-B21: engineered DmpR derivative with mutated sensor domain (SEQ ID No. 3 and No. 9) (protein)
chain: MPIKYKPEIQHSDFKDLTNLIHFQSMEGKIWLGEQRMLLLQFSAMASFRREMVNTLGIERAKGLFLRHGYQSGLKDAELARKLRPNASEVGMFLAGPQMHSLKGLVKVRPTGLDIDKEYGRFYAEMEWIDWFEVEICQTDLGQMQDPVCWTVLGYACAYSSAFMGREIIFKEVSCRGCGG
Question: B1 was tested. Which “increase in β-galactosidase activity” value ([1]; 0.0025 mM solution of 2-chlorophenol (0.3 parts per million)) did it give?
Answer: 60 fold

Question: What about the “response (β-galactosidase activity)” value ([1]; 2,4-dichlorophenol at 0.025 mM (4 parts per million)) of the same molecule?
Answer: elicits a response

B2: DmpR-B31: engineered DmpR derivative with mutated sensor domain (SEQ ID No. 5) (protein)
chain: MPIKYKPEIQHSDFKDLTNLIHFQSMEGKIWLGEQRMLLLQFSAMASFRREMVNTLGVERTKGLFLRHGYQSGLKDAELARKLRPNASEVGMFLAGPQMHSLKGLVKVRPTELDIDKEYGRFYAEMEWIDWFEVEICQTDLGQMQGPVCWTVLGYACAYSSAFMGREIIFKEVSCRGCGG
Question: With B2 as the molecule, how does the “response to most substituted phenols” value ([1]; 2,4-dichlorophenol, 2,4-dimethylphenol, 4-nitrophenol (FIG. 6a)) read?
Answer: strong response

Question: What about the “uninduced (NI) value” ([1]; no inducer (no phenol)) of the same molecule?
Answer: relatively high

B3: DmpR-D12: engineered DmpR derivative with mutated sensor domain (SEQ ID No. 7) (protein)
chain: MPIKYKPEIQHSDFKDLTNLIHFQSMEGKIWLGEQRMLLLQFSAMASFRREMVNTLGIERAKGLFLRHGYQSGLKDAELARKLRPNASEVGMFLAGPQMHSLKGLVKVRPTELDIDKEYGRFYAEMEWIDWFEVEICQTDPGQMQDPVCWTVLGYACAYSSAFMGREIIFKEVSCRGCGG
Question: Which “detection relative to wild type DmpR” value ([1]; 3 ppm 2,4-dichlorophenol) does the source give for B3 here?
Answer: 10 fold

Question: And the “detection relative to wild type DmpR” value ([1]; 10 ppm 4-chloro-3-methylphenol)?
Answer: eight

B4: DmpR-B17#2: engineered DmpR derivative with mutated sensor domain (SEQ ID No. 2) (protein)
chain: MPIKYKPEIQHSDFKDLTNLIHFQSMEGKIWLGEQRMLLLQFSAMASFRREMVNTLGIERAKGLFLRHGYQSGLKDAELARKLRPNASEVGMFLAGPQMHSLKGLVKVRPTELDIDKEYGRFYAEMEWIDWFEVEICQTDLGQMQDPVCWTVLGYACAYSSAFMGREIIFKEVSCRGCGG
Question: B4 was tested. Which “response to low concentrations of phenol” value ([1]; 2,4-dichlorophenol) did it give?
Answer: responds to low concentrations

Question: And the “response to low concentrations of phenol” value ([1]; 2-nitrophenol)?
Answer: responds to low concentrations

Question: And the “response to low concentrations of phenol” value ([1]; 4-nitrophenol)?
Answer: responds to low concentrations

Question: And the “detection compared with wild type protein” value ([1]; six concentrations of 4-chloro-3-methylphenol)?
Answer: significantly better detectors

B5: DmpR-B9: engineered DmpR derivative with mutated sensor domain (SEQ ID No. 1) (protein)
chain: MPIEYKPEIQHSDFKDLTNLIHFQSMEGKIWLGEQRMLLLQSSAMASFRREMVNTLGIERAKGLFLRHGYQSGLKDAELARKLRPNASEVGMFLAGPQMHSLKGLVKVRPTELDIDKEYGRFYAEMEWIDWFEVEICQTDLGQMQDPVCWTVLGYACAYSSAFMGREIIFKEVSCRGCGG
Question: For B5, which “response relative to wild type” value ([2]; 2.5 ppm phenol in soil) is on record?
Answer: four

Question: What about the “response relative to wild type DmpR” value ([2]; 4 parts per million (ppm) 2,4-dichlorophenol in soil) of the same molecule?
Answer: six

Question: What about the “capacity to detect phenols in soil compared with wild type protein” value ([2]; contaminated soil) of the same molecule?
Answer: significantly better

B6: DmpR-D9: engineered DmpR derivative with mutated sensor domain (SEQ ID No. 6) (protein)
chain: MPIKYKPEIQHSDFKDLTNLIHFQSMEGKIWLGEQRMLLLQFSAMASFRREMVNTLGIERAKGLFLRHGYQSGLKDAELARKLRPNASEVGMFLAGPQMHSLKGLVKVRPTELDIGREYGRFYAEMEWIDWFEVEICQTDLGQMQDPVCWTVLGYACAYSSALMGREIIFKEVSCRGCGG
Question: Which “response relative to wild type protein” value ([1]; 2-chlorophenol) does the source give for B6 here?
Answer: nineteen

B7: DmpR-B23: engineered DmpR derivative with mutated sensor domain (SEQ ID No. 4) (protein)
chain: MPIKYKPEIRHSDFKDLTNLIHFQSMEGKIWLGEQRMLLLQFSAMASFRREMVNTLGIERAKGLFLRHGYQSGLKDAELARKLRPNASEVGMFLAGPQMHSLKGLVKVRPTELDIDMEYGRFYAEMEWIDWFEVEICQTDLGQMQDPVCWTVLGYACAYSSAFMGREIIFKEVSCRGCGG
Question: Which “response relative to wild type DmpR” value ([1]; 0.5 ppm 2-chlorophenol, four-hour exposure) does the source give for B7 here?
Answer: more than 20 fold

Question: And the “effect of four-hour exposure on detection signal (β-galactosidase activity units)” value ([1]; low concentrations of 2-chlorophenol)?
Answer: increases the detection signal

Question: And the “detection compared with wild type protein” value ([1]; six concentrations of 2-chlorophenol, 60 minute exposure)?
Answer: significantly better detectors
